The Human Domainome abundance scans (Beltran et al. 2025)
± gives the uncertainty stated by the source.

B1: Protein piccolo, residues 1058 to 1114; numbered along this chain, Q9Y6V0 (parent)
chain: TCPLCKTELNIGSKDPPNFNTCTECKNQVCNLCGFNPTPHLTEIQEWLCLNCQTQRA

Variants of: B1
Assay: abundance fitness (aPCA) (normalised: wild type 0, dead -1); higher = more abundant; growth selection in yeast, the domain comes from the species named
Conditions: Homo sapiens

In order of rising abundance fitness:
1. TCPLIKTELNIGSKDPPNFNTCTECKNQVCNLCGFNPTPHLTEIQEWLCLNCQTQRA [C5I]  -1.06 ± 0.092
2. TCPLCKTELNIGSKDPPNFNTCTECKNQVCNLCGFNPTPHLTEIQEWLILNCQTQRA [C49I]  -1.05 ± 0.28
3. TCPLPKTELNIGSKDPPNFNTCTECKNQVCNLCGFNPTPHLTEIQEWLCLNCQTQRA [C5P]  -1.01 ± 0.089
4. TCPLCKTELNIGSKDPPNFNTCTECKNQVCNLCGFNPTPHLTEIQEWLLLNCQTQRA [C49L]  -1 ± 0.14
5. TCPLCKTELNIGSKDPPNFNTCTECKNQVCNLCGFNPTPHLTEIQEWLVLNCQTQRA [C49V]  -0.849 ± 0.14
6. TCPLCKTELNIGSKDPPNFNTCTELKNQVCNLCGFNPTPHLTEIQEWLCLNCQTQRA [C25L]  -0.846 ± 0.082
7. TCPLCKTELNIGSKDPPNFNTCTEKKNQVCNLCGFNPTPHLTEIQEWLCLNCQTQRA [C25K]  -0.808 ± 0.24
8. TCPLCKTELNIGSKDPPNFNTCTECKNQVCNLPGFNPTPHLTEIQEWLCLNCQTQRA [C33P]  -0.795 ± 0.14
9. TCPLCKTELNIGSKDPPNFNTCTEIKNQVCNLCGFNPTPHLTEIQEWLCLNCQTQRA [C25I]  -0.669 ± 0.14
10. TCPLCKTELNIGSKDPPNFNTCTENKNQVCNLCGFNPTPHLTEIQEWLCLNCQTQRA [C25N]  -0.66 ± 0.14
11. TCPLCKTELNIGSKDPPNFNTCTECKNQVCNLNGFNPTPHLTEIQEWLCLNCQTQRA [C33N]  -0.641 ± 0.15
12. TCPLCKTELNIGSKDPPNFNTCTECKNQVCNLCGFNPTHHLTEIQEWLCLNCQTQRA [P39H]  -0.393 ± 0.33
13. TCPLCKTELNIGSKDPPNFNTCTECKNQVCNLCGFNPTPHLTEIQEWLCLNCQIQRA [T54I]  -0.37 ± 0.18
14. TCPLCKTELNIGRKDPPNFNTCTECKNQVCNLCGFNPTPHLTEIQEWLCLNCQTQRA [S13R]  -0.264 ± 0.079
15. TCPLCKTELNIGSKRPPNFNTCTECKNQVCNLCGFNPTPHLTEIQEWLCLNCQTQRA [D15R]  -0.257 ± 0.089
16. TCPLCKTELNIGSKDPPCFNTCTECKNQVCNLCGFNPTPHLTEIQEWLCLNCQTQRA [N18C]  -0.219 ± 0.14
17. TCPLCKTELNIGSKDPPNFNTCTECKNQVCNYCGFNPTPHLTEIQEWLCLNCQTQRA [L32Y]  -0.218 ± 0.17
18. TCPLCKTELNIGSKDPPNFNTCTECKNQVCNLCGFNPTGHLTEIQEWLCLNCQTQRA [P39G]  -0.211 ± 0.1
19. TCPLCKTELNIGSKDPPNFNTCTECKNQVCNLCGFNPTPHLTVIQEWLCLNCQTQRA [E43V]  -0.202 ± 0.11
20. TCPLCKTELNIGSKDPPNFNTCTECKNQVCNLCGFNPTPHLTSIQEWLCLNCQTQRA [E43S]  -0.2 ± 0.12
21. TCPLCKTELNIGSKDPSNFNTCTECKNQVCNLCGFNPTPHLTEIQEWLCLNCQTQRA [P17S]  -0.175 ± 0.11
22. TCPLCKTELNIGSKDPPNFNPCTECKNQVCNLCGFNPTPHLTEIQEWLCLNCQTQRA [T21P]  -0.169 ± 0.14
23. TCPLCKTELNIGSKDPPNFNTCTECKNQVCNLCGFNPTPHLTQIQEWLCLNCQTQRA [E43Q]  -0.167 ± 0.18
24. TCPLCKTILNIGSKDPPNFNTCTECKNQVCNLCGFNPTPHLTEIQEWLCLNCQTQRA [E8I]  -0.153 ± 0.11
25. TCPLCKTELNIGSKDPPNANTCTECKNQVCNLCGFNPTPHLTEIQEWLCLNCQTQRA [F19A]  -0.114 ± 0.15
26. TCPLCKTELNIGSKDPPNFNTCTECKNQVCNLCGFNPTPHLTEIQEKLCLNCQTQRA [W47K]  -0.111 ± 0.25
27. TCPLCKTELNIGSKDPPNFNTCTECKNQVCNLCSFNPTPHLTEIQEWLCLNCQTQRA [G34S]  -0.106 ± 0.088
28. TCPLCKTELNIGSKDPPNFNTCTECKNQVCNLCGFAPTPHLTEIQEWLCLNCQTQRA [N36A]  -0.097 ± 0.097
29. TCPLCKTELNIGSKDPPNFNTCTECKNQVCNICGFNPTPHLTEIQEWLCLNCQTQRA [L32I]  -0.097 ± 0.2
30. TCPLCKTELNIGSKDPPNFNTCTECKNQVCNLCGFNPTPHLTEIQKWLCLNCQTQRA [E46K]  -0.079 ± 0.17
31. TCPLCKTELNIGSKDPPNTNTCTECKNQVCNLCGFNPTPHLTEIQEWLCLNCQTQRA [F19T]  -0.044 ± 0.13
32. TCPLCKTELNIGSKDPPNFNTCTECKNVVCNLCGFNPTPHLTEIQEWLCLNCQTQRA [Q28V]  -0.033 ± 0.1
33. TCPLCKTELNIGSKDPPNFNTCTECKNQVCNCCGFNPTPHLTEIQEWLCLNCQTQRA [L32C]  -0.017 ± 0.13
34. TCPLCKTELNIGSKDPPNFNTCTECKNQVCNLCGFNPTIHLTEIQEWLCLNCQTQRA [P39I]  -0.013 ± 0.17
35. TCPLCKTELNIGSKDPPNFNTCTECKNSVCNLCGFNPTPHLTEIQEWLCLNCQTQRA [Q28S]  0.007 ± 0.095
36. TCPLCKTELNIGSKDPPDFNTCTECKNQVCNLCGFNPTPHLTEIQEWLCLNCQTQRA [N18D]  0.008 ± 0.2
37. TCPLCKTELNIGSKIPPNFNTCTECKNQVCNLCGFNPTPHLTEIQEWLCLNCQTQRA [D15I]  0.01 ± 0.16
38. TCPLCKTELNIGSKDPPNFNTCTECKNQVCNLCGFNPTAHLTEIQEWLCLNCQTQRA [P39A]  0.018 ± 0.12
39. TCPLCKTELNMGSKDPPNFNTCTECKNQVCNLCGFNPTPHLTEIQEWLCLNCQTQRA [I11M]  0.039 ± 0.15
40. TCPLCKTELNIGSKDPPNFNTCTECKNQVCNLCGFNPTPHLTEIYEWLCLNCQTQRA [Q45Y]  0.047 ± 0.2
41. TCPLCKTELNIGSKDPPNFNTCTECKNQVCNLCGFNPTPHLCEIQEWLCLNCQTQRA [T42C]  0.064 ± 0.14
42. TCPLCKTELNIGSKDPPNFNTCTECKNQVCNLCGFNPTPHLNEIQEWLCLNCQTQRA [T42N]  0.097 ± 0.39
43. TCPLCKTELNIGSKDPPNFNTCTECKNQVCNLCGFNPTPHLTEIQEWLCLNCRTQRA [Q53R]  0.099 ± 0.1
44. TCPLCKTELNIGSKDPPNFNYCTECKNQVCNLCGFNPTPHLTEIQEWLCLNCQTQRA [T21Y]  0.135 ± 0.18
45. TCPLCKTELNIGQKDPPNFNTCTECKNQVCNLCGFNPTPHLTEIQEWLCLNCQTQRA [S13Q]  0.135 ± 0.12
46. TCPLCKTELNIGSKDPPNFNTCTECKNQVCNLCGFNPTPHLTEIQEWLCLNCQQQRA [T54Q]  0.214 ± 0.13
47. TCPLCKTELNIGSKDPPNFNTCTECKNQVCNGCGFNPTPHLTEIQEWLCLNCQTQRA [L32G]  0.279 ± 0.088
